Assay [1] addresses FIP200 CLAW domain (Homo sapiens) (UniProt Q8TDY2). The settings on record: cited from earlier work.
For assay [2] the target is unchanged. The settings on record: cited from earlier work. The source holds these as a separate data set.
Assay [3] deals with T1, FITC-labeled TNIP1 FIR peptide, unmodified.
T1 chain: SSGTSSEFEVVTPEE
The experiment in a line: fluorescence polarisation. Background: Polarisation of emitted light reports the rotation of a fluorescent probe.

The target in assay [4] is T2, FITC-labeled TNIP1 FIR peptide, pS122.
T2 chain: SSGTSSEFEVVTPEE
The experiment in a line: fluorescence polarisation.

In assay [5] the target is T3, FITC-labeled TNIP1 FIR peptide, pS123.
T3 chain: SSGTSSEFEVVTPEE
The experiment in a line: fluorescence polarisation.

Assay [6] deals with recombinant His6-TEV-FIP200-CLAW domain. The experiment in a line: fluorescence polarisation.

Read-outs that look alike come from different tables or passages of the source. Where no end group is shown, it is not given here.

By Kd is commonly meant the equilibrium constant for the complex coming apart. In the case of “OPTN phosphorylated (from UniProt Q96CV9)”, the Kd in assay [1] is 11.5 µM.
OPTN (from UniProt Q96CV9): the Kd in assay [2] was 306 µM.

B1: recombinant His6-TEV-FIP200-CLAW domain (domain or fragment)
chain: SRHSEKIAIRDFQVGDLVLIILDERHDNYVLFTVSPTLYFLHSESLPALDLKPGEGASGASRRPWVLGKVMEKEYCQAKKAQNRFKVPLGTKFYRVKAVSWNKKV
modifications: not checked
Take B1: the Kd in assay [3] amounted to 46 µM; in assay [4], 9.7 µM; in assay [5], 3.27 µM.

B2: unlabeled TNIP1 pS123 peptide (peptide)
chain: SSGTSSEFEVVTPEE
modifications: also: phosphoserine pS123, place not mapped
One may read the IC50 as the concentration that gives 50% inhibition. Consider B2, for which, in assay [6], the IC50 came out at 70.2 µM.

The values above are taken from paper PMC10112281.
